The record followed here is patent US20120171209A1 (Ablynx, published 2012).

Test [1] deals with T1, cyno IL-6R on CHO-K1 cells, clone CyIL6R 405 (cynomolgus monkey (extracellular domain), UniProt A0A2K5WN54 60-499).
T1 construct: whole, on cells; chimeric construct on cells; also called CHO K1-cynomolgous IL-6R
T1 sequence: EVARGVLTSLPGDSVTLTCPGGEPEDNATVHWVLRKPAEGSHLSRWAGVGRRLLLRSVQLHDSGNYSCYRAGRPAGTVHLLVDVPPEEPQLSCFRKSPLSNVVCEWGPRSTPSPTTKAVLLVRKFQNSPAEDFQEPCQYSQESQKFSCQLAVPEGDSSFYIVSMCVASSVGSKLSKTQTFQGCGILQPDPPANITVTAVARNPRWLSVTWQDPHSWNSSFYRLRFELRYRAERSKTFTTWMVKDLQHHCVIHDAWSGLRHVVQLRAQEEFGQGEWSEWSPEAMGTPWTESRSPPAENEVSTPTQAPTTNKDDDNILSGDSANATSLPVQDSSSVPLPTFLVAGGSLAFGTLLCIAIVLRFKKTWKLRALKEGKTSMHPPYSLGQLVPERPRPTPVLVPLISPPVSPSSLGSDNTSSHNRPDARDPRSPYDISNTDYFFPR
As to the kind of experiment: FMAT on CHO cells, competitor labelled Reference IgG. On the procedure:
Eleven inhibitory Nanobodies were tested in competition with labelled Reference IgG for binding to
CHO cells expressing hIL-6R or cynoIL-6R.

In test [2] the target is T2, hybrid IL-6R (human, with rat sequence in domain I).
T2 construct: produced in HEK.EBNA cells and purified
T2 chain: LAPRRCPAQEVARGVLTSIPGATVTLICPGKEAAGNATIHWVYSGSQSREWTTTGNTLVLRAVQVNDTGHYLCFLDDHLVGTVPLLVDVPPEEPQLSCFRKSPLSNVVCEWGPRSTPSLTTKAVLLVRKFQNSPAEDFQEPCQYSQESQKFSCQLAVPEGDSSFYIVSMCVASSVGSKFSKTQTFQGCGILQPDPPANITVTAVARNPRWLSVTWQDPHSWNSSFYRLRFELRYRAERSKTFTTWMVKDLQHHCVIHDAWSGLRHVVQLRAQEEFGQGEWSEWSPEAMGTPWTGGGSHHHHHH
As to the kind of experiment: sandwich ELISA, coated hybrid IL-6R, anti-myc-HRP detection. On the procedure: The panel of purified Nanobodies was tested by standard sandwich ELISA with coated human IL-6R versus hybrid IL-6R (see Example 3). Anti-myc-horseradish peroxidase (AbD Serotec, Oxford, UK) was used as a detection antibody. Only Nanobodies with koff rates that were low enough to give a positive signal towards human IL-6R are depicted.

Test [3] has as its target cynomolgus IL-6R used in Biacore (cynomolgus monkey). The test can be described thus: Biacore, periplasmic extract.
Test [4] addresses T3, human soluble IL-6R, recombinant (human, UniProt P08887 20-358).
T3 construct: also called human IL6-R; bio-IL-6R
T3 sequence (looked up): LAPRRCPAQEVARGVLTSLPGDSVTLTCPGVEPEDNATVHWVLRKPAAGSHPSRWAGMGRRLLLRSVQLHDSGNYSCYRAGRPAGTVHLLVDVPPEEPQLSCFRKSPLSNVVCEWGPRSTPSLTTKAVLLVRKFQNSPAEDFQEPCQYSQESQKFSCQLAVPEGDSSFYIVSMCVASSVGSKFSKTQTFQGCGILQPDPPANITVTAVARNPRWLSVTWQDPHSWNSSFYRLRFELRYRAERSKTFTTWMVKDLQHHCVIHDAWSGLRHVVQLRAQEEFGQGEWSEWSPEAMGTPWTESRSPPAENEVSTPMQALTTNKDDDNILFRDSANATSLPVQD
As to the kind of experiment: Biacore, periplasmic extract. On the procedure: Periplasmic extracts of representative family clones were also analyzed on Biacore. Dissociation curves were used to calculate koff rates. koff rates are depicted in Table C-6.

In test [5] the target is IL-6R on the surface of TF-1 cells (UniProt P08887). As to the kind of experiment: cell-based or functional assay.
Test [6] addresses cynomolgus soluble IL-6R, native, in cynomolgous plasma (cynomolgus monkey). As to the kind of experiment: ELISA 2, cyno plasma sIL-6R, periplasmic extract, competitor IL-6. A general note: An ELISA detects its analyte on a solid surface through an enzyme-linked reagent.

Chain of IL-6R on the surface of TF-1 cells (P08887 20-468 limits assumed): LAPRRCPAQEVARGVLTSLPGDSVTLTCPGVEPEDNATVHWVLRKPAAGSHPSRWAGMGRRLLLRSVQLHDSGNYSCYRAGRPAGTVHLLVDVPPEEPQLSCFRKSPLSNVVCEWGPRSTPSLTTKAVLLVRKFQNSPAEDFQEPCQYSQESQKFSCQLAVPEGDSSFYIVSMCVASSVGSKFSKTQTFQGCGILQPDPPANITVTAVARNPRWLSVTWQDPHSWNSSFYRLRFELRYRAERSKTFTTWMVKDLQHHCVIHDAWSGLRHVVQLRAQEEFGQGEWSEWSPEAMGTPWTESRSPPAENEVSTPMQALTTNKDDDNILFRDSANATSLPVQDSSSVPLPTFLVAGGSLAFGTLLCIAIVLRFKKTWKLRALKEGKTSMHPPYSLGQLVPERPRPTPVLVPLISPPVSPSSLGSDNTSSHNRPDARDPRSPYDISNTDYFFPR

B1: reference Fab (Fab, V domains shown)
VH: QVQLQESGPGLVRPSQTLSLTCTVSGYSITSDHAWSWVRQPPGRGLEWIGYISYSGITTYNPSLKSRVTMLRDTSKNQFSLRLSSVTAADTAVYYCARSLARTTAMDYWGQGSLVTVSS
VL: DIQMTQSPSSLSASVGDRVTITCRASQDISSYLNWYQQKPGKAPKLLIYYTSRLHSGVPSRFSGSGSGTDFTFTISSLQPEDIATYYCQQGNTLPYTFGQGTKVEIKR
notes: expressed in the periplasm of E. coli
In test [1], B1 yielded an IC50 of 0.8 nM.

B2: IL6RPMP104E4 (VHH)
VHH: EVQLVESGGGTVQAGGSLKLSCAASGRTFTNYAMGWFRQAPGKEREFVAAIAYATHFADSVKGRFTISRGNAKNTVYLQMNSLKPEDTAVYYCAADLSLSKMVSKITSDMDYWGKGTLVTVSS
notes: family 8; also called PMP104E04; IL6R104E4
Turning to B2, in test [2], the binding result is reported as “no binding”. Besides, the koff in test [3] stood at 0.00045 s⁻¹; in test [4], 0.00075 s⁻¹.

B3: IL6RPMP107A9 (VHH)
VHH: EVQLVESGGGLVQAGGSLRLSCAASGGIFSDMFMGWFRQAPGKSRESVARISPSGNTFYQDSVRGRFTISTDNAKNTVYLQMNNLKPEDTAVYYCAANVGVTGSYEYWGQGTQVTVSS
notes: family 21; also called IL6R107A9
B3 had an IC50, IL-6-dependent proliferation of TF-1 cells in test [5] of 349 nM. Moreover, the off-rate (koff) in test [3] and in test [4] was 0.01 s⁻¹ each time.

B4: IL6RPMP120A5 (VHH)
VHH: EVQLVESGGGLVQAGGSLSLSCATSGRTISDDTMAWFRQAPGKEREFVAIITFNGARTHYSDSVRDRFTISRDNAKNTVYLQMNSLKSEDTAVYYCAASTKYYSSTYNYIHPAFYDIWGQGTQVTVSS
notes: family 28; also called IL6R120A5
With B4, the IC50 in test [1] amounted to 27 nM. The same molecule had an IC50, IL-6-dependent proliferation of TF-1 cells in test [5] of 5.59 nM.

B5: IL6RPMP103C7 (VHH)
VHH: EVQLVESGGGLVQAGGSLSLSCATSGRTISDDTMAWFRQAPGKEREFVATITFSGARTHYSDSVRDRFTISRDNAKNTVYLQMDSLKSEDTAVYYCAASTKYYSSTYNYIHPAFYDIWGQGTQVTVSS
notes: family 28
B5 gave an IC50 in test [1] of 75 nM. Further, in test [5], the IC50, IL-6-dependent proliferation of TF-1 cells was found to be 61.3 nM.

B6: IL6RPMP103C4 (VHH)
VHH: EVQLVESGGGLVEAGGSLRLSCAAAGRTLSSYSMAWFRQAPGKEREFVAIIRGNPSRTYHSDSVKGRFTASRDNAKNTVYLQMNRLEPEDTAVYYCAADPPPFASDYSAPQSYDYWGQGTQVTVSS
notes: family 19; also called IL6R103C4
B6: the IC50 in test [1] is 30 nM. In test [5], this molecule yielded an IC50, IL-6-dependent proliferation of TF-1 cells of 15.6 nM. Further, the koff in test [3] and in test [4] was 0.001 s⁻¹ in each case.

B7: IL6RPMP107H2 (VHH)
VHH: KVQLVESGGGLVQPGGSLRLSCAASGFTFSSYAMSWVRRAPGKGLEWVSAINSDGTGSSYAPFVTGRFTASRDNAKNTLYLQMNSLKPEDTAVYYCTNSNRYDYADFSAVRGQGTQVTVSS
notes: family 27; also called IL6R107H2
On to B7, for which the OD450 ratio sample/blank in test [6] amounted to 0.6. In addition, the koff in test [4] is 0.0001 s⁻¹.

B8: IL6RPMP101B12 (VHH)
VHH: EVQLVESGGGLVQPGGSLRLSCAASGVTLDYYAIGWFRQAPGKEREGVSSISSNDGSTFYADSVKGRFTISRDKAKNTVYLQMNSLKPEDTAVYYCAATYLTAQAVGVPVAYYEFDYWGQGTQVTVSS
notes: family 2; also called IL6R101B12
As to B8, in test [2], the binding result is given as “no binding”.

B9: IL6RPMP103H9 (VHH)
VHH: EVQLVESGGGLVQPGGSLRLSCAASKSIFDINAMYWHRQAPGKQRESVASITSGGMRNYADSVKDRFTISKDNAKNTVYLQMNGLKPDDTAVYYCGLGRYEGGVWRDYWGQGTQVTVSS
notes: family 13; also called PMP103H09; IL6R103H9
Take B9: the IC50, IL-6-dependent proliferation of TF-1 cells in test [5] was determined as 1470 nM. The koff in test [3] and in test [4] was 0.01 s⁻¹ in each case.

B10: IL6RPMP105E1 (VHH)
VHH: EVQLVESGGGLVQAGGSLRLSCAASGSIFSIKAMGWYRQAPGKQRELVARITSGGSTYYADSVKGRFTISRDNAKNTVYLQMNSLKPEDTAVFYCNAIVTDSDYDLGNDYWGQGTQVTVSS
notes: family 7; also called PMP105E01; IL6R105E1
For the molecule B10, the concentration for half-maximal inhibition (IC50) in test [1] is 13 nM. The same molecule showed an IC50, IL-6-dependent proliferation of TF-1 cells in test [5] of 6.2 nM. The koff in test [3] is 0.001 s⁻¹; in test [4], 0.00041 s⁻¹.

In general, IC50 refers to the concentration that inhibits the measured activity by half. One may read the koff as the rate constant with which the complex falls apart.
